Experiment [1] has as its target SAS-6 head domain (UniProt Q6UVJ0). Particulars: cited from earlier work.
In experiment [2] the target is T1, SAS-5::His6, full-length, refolded in vitro (C. elegans, UniProt Q20010 1-404, a glycine codon was introduced immediately next to initiator methionine).
T1 construct: SAS-5 of C. elegans, longer isoform SAS-5a, full length; codon-optimised gene in pET21b (NdeI/HindIII); a glycine codon was put next to the initiator methionine; Prey in the pull-downs with GST-ZYG-1 fragment baits; also called full-length SAS-5; SAS-5::6XHis; not shown: His6, C-terminal, kept
T1 sequence (looked up): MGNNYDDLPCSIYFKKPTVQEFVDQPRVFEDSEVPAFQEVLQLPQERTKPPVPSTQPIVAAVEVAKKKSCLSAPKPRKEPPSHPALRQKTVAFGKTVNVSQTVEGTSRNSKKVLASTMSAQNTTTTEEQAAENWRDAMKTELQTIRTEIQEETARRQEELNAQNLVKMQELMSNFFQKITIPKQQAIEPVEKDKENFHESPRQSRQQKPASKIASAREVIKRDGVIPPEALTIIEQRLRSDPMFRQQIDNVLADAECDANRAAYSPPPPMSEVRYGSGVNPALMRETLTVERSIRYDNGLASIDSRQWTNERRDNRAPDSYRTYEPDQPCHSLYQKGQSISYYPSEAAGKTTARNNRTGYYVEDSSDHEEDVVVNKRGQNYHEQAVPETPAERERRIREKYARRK
The experiment is described as follows: pull-down; GST-ZYG-1 fragment baits (4.32 mM as printed) on magnetic glutathione beads, blocked with Odyssey blocking buffer; full-length SAS-5 prey (0.2 mM as printed) 1 h at 4 °C; washed with 50 mM Tris pH 8.0, 300 mM NaCl, 5 mM DTT; immunoblot with anti-GST and anti-SAS-5; GST alone as negative control. To be noted: both partners purified.

Data on three molecules can be found in publication PMC11169420, “The kinase ZYG-1 phosphorylates the cartwheel protein SAS-5 to drive centriole assembly in C. elegans” (EMBO Reports, 2024).

Regarding SAS-6 head domain (from UniProt Q6UVJ0), the Kd in experiment [1] is 75 µM.

B1: GST-ZYG-1 cryptic polo box (CPB) fragment spanning 338-564 (domain or fragment, C. elegans, UniProt Q9GT24 338-564, looked up)
chain: GTVPPSREDRNRSQLWPIRMDRLEGQRVCTAGGRYIVELDTRCRFEVAAQGNFVKRILIVEVDEMVQTVYVHRIPDRTVRGRNGEEELITLTNNPFVYTSYSQMPKEVQNDYMRLQKMVAVTISGRVAKVTFRRPSQFPDAQAQLMENGDLRIKLPRSVIVRKMDNGEIFNCIDGIATQKQAVSGITLTKVNEVYKYLIRFEQCLNGMDRGMVCFPIVFSAGTNMVG
notes: ZYG-1 of C. elegans, cryptic polo box (CPB), residues 338-564; also called ZYG-1 CPB; not shown: GST, N-terminal, kept; His6, C-terminal, kept
Consider B1, for which, in experiment [2], the binding result is given as “binds”.

B2: GST-ZYG-1(1-250) K41M (kinase domain, C-terminal 6X-His) (domain or fragment, C. elegans, UniProt Q9GT24 1-250, looked up)
chain: MSGGKSGSRLSAYSHLKEIGKGGFGVVYAAQRENGEKVAIMRIDKKVPKNRVWTEIQTMKELKKSKYVVEFYEDFVEDGYTYIVMELCEGGSLQAYVREHGALDDATAVHVLRQLISAVSFMHRVNVIHRDLSAGNVFIKDSKKKKMTVKLGDFGLATTLGRGETTCTIVGTPGFIAPQVYDQEYTQSADVYSLGAVLYTMLTARNPPPKGLPPTCGMSPNAARLVEQMMDTDAKKRIPLTQIVLSEFMY
notes: ZYG-1 of C. elegans, kinase domain, residues 1-250, with K41M (used to reduce toxicity to E. coli); also called kinase domain (amino acids 1-250); not shown: GST, N-terminal, kept; His6, C-terminal, kept
With B2, in experiment [2], the binding result is listed as “binds”.
